Assay results: patent publication US20200164032A1

Legend:
[1] = target: XCL1 (as tested against T17; species not stated)
[2] = target: CXCL12 (hSDF-1b) (Homo sapiens) (UniProt P48061)
[3] = target: CXCL10 (as tested against T17; species not stated)
[4] = target: XCL1 (as tested against T17; species not stated); assay: BLI (Octet Red), biotinylated T17 on streptavidin biosensors; KD,kin
[5] = target: CXCL12 (hSDF-1b) (Homo sapiens) (UniProt P48061); assay: as above
[6] = target: CXCL10 (as tested against T17; species not stated); assay: as above
[7] = target: murine CCL12 (mouse) (UniProt Q62401); assay: SPR (Biacore T-100), T17 on CM5 chip; KD,eq
murine CCL12 (mouse), sequence (Q62401 23-104 limits assumed): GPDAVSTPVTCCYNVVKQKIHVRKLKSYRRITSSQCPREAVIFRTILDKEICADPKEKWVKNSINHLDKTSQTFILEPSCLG

[8] = target: murine CCL11 (mouse) (UniProt P48298); assay: SPR (Biacore T-100), T17 on CM5 chip; KD,eq
murine CCL11 (mouse), sequence (P48298 24-97 limits assumed): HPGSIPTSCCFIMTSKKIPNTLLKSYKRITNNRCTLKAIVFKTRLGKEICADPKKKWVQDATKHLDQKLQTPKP

[9] = target: murine CCL21 (mouse) (UniProt P84444); assay: SPR (Biacore T-100), T17 on CM5 chip; KD,eq
murine CCL21 (mouse), sequence (P84444 24-133): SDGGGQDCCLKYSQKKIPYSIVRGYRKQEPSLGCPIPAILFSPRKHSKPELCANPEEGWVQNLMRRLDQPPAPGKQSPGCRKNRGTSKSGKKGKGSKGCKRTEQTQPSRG

[10] = target: murine CCL3 (mouse) (UniProt P10855); assay: SPR (Biacore T-100), T17 on CM5 chip; KD,eq
murine CCL3 (mouse), sequence (P10855 24-92 limits assumed): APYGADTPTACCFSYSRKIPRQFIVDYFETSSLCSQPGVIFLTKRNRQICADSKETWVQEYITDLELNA

[11] = target: murine CCL2 (mouse) (UniProt P10148); assay: SPR (Biacore T-100), T17 on CM5 chip; KD,eq
murine CCL2 (mouse), sequence (P10148 24-148 limits assumed): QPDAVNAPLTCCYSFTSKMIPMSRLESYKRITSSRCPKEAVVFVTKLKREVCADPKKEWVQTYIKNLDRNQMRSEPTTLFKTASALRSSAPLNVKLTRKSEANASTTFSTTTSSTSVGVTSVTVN

[12] = target: murine CCL5 (mouse) (UniProt P30882); assay: SPR (Biacore T-100), T17 on CM5 chip; KD,eq
murine CCL5 (mouse), sequence (P30882 24-91 limits assumed): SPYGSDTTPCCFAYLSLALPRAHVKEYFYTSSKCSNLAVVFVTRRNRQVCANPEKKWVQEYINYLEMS

[13] = target: murine CCL20 (mouse) (UniProt O89093); assay: SPR (Biacore T-100), T17 on CM5 chip; KD,eq
murine CCL20 (mouse), sequence (O89093 28-97 limits assumed): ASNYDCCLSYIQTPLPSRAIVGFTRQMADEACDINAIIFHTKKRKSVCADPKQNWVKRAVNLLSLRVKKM

[14] = target: murine CCL4 (mouse) (UniProt P14097); assay: SPR (Biacore T-100), T17 on CM5 chip; KD,eq
murine CCL4 (mouse), sequence (P14097 24-92 limits assumed): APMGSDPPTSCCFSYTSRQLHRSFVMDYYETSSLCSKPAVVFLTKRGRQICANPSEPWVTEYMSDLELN

[15] = target: CCL9 (UniProt P51670); assay: SPR (Biacore T-100), T17 on CM5 chip; KD,eq
CCL9, sequence (P51670 22-122 limits assumed): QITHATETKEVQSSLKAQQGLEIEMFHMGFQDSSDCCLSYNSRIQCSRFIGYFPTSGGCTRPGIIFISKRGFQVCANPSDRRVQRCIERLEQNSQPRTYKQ

[16] = target: murine CCL24 (mouse) (UniProt Q9JKC0); assay: SPR (Biacore T-100), T17 on CM5 chip; KD,eq
murine CCL24 (mouse), sequence (Q9JKC0 27-119 limits assumed): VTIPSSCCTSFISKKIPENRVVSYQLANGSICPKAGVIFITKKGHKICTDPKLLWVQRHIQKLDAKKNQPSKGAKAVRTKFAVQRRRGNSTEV

[17] = target: human CCL2 (human) (UniProt P13500); assay: SPR (Biacore T-100), T17 on CM5 chip; KD,eq
human CCL2 (human), sequence (P13500 24-99 limits assumed): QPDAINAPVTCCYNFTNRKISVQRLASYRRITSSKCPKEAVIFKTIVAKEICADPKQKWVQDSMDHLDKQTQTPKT

[18] = target: murine CCL8 (mouse) (UniProt Q9Z121); assay: SPR (Biacore T-100), T17 on CM5 chip; KD,eq
murine CCL8 (mouse), sequence (Q9Z121 24-97 limits assumed): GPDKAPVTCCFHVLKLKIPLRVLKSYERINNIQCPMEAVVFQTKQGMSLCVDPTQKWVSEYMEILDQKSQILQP

[19] = target: XCL1 (as tested against T17; species not stated); assay: BLI (Octet Red), biotinylated T17 on streptavidin biosensors; KD,eq
[20] = target: CXCL12 (hSDF-1b) (Homo sapiens) (UniProt P48061); assay: as above
[21] = target: CXCL10 (as tested against T17; species not stated); assay: as above
[22] = target: murine CCL3 (mouse) (UniProt P10855); assay: SPR, T17 amine-coupled to CM5 chip
[23] = target: murine CCL2 (mouse) (UniProt P10148); assay: SPR, T17 amine-coupled to CM5 chip
[24] = target: human CCL2 (human) (UniProt P13500); assay: SPR, T17 amine-coupled to CM5 chip
[25] = target: XCL1 (as tested against T17; species not stated); assay: BLI (Octet Red), biotinylated T17 on streptavidin biosensors; t1/2
[26] = target: CXCL12 (hSDF-1a) (Homo sapiens) (UniProt P48061); assay: as above
CXCL12 (hSDF-1a) (Homo sapiens), sequence (P48061 22-89 limits assumed): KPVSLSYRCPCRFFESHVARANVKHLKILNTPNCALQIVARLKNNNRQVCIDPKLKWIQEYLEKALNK

[27] = target: CXCL12 (hSDF-1b) (Homo sapiens) (UniProt P48061); assay: as above
[28] = target: CXCL10 (as tested against T17; species not stated); assay: as above
[29] = target: murine CCL12 (mouse) (UniProt Q62401); assay: SPR (Biacore T-100), T17 on CM5 chip; t1/2
[30] = target: murine CCL11 (mouse) (UniProt P48298); assay: SPR (Biacore T-100), T17 on CM5 chip; t1/2
[31] = target: murine CCL21 (mouse) (UniProt P84444); assay: SPR (Biacore T-100), T17 on CM5 chip; t1/2
[32] = target: murine CCL3 (mouse) (UniProt P10855); assay: SPR (Biacore T-100), T17 on CM5 chip; t1/2
[33] = target: murine CCL2 (mouse) (UniProt P10148); assay: SPR (Biacore T-100), T17 on CM5 chip; t1/2
[34] = target: murine CCL5 (mouse) (UniProt P30882); assay: SPR (Biacore T-100), T17 on CM5 chip; t1/2
[35] = target: murine CCL20 (mouse) (UniProt O89093); assay: SPR (Biacore T-100), T17 on CM5 chip; t1/2
[36] = target: murine CCL4 (mouse) (UniProt P14097); assay: SPR (Biacore T-100), T17 on CM5 chip; t1/2
[37] = target: CCL9 (UniProt P51670); assay: SPR (Biacore T-100), T17 on CM5 chip; t1/2
[38] = target: murine CCL24 (mouse) (UniProt Q9JKC0); assay: SPR (Biacore T-100), T17 on CM5 chip; t1/2
[39] = target: human CCL2 (human) (UniProt P13500); assay: SPR (Biacore T-100), T17 on CM5 chip; t1/2
[40] = target: murine CCL8 (mouse) (UniProt Q9Z121); assay: SPR (Biacore T-100), T17 on CM5 chip; t1/2
[41] = target: murine CCL12 (mouse) (UniProt Q62401); assay: SPR (Biacore T-100), T17 on CM5 chip; KD,kin
[42] = target: murine CCL11 (mouse) (UniProt P48298); assay: SPR (Biacore T-100), T17 on CM5 chip; KD,kin
[43] = target: murine CCL21 (mouse) (UniProt P84444); assay: SPR (Biacore T-100), T17 on CM5 chip; KD,kin
[44] = target: murine CCL3 (mouse) (UniProt P10855); assay: SPR (Biacore T-100), T17 on CM5 chip; KD,kin
[45] = target: murine CCL2 (mouse) (UniProt P10148); assay: SPR (Biacore T-100), T17 on CM5 chip; KD,kin
[46] = target: murine CCL5 (mouse) (UniProt P30882); assay: SPR (Biacore T-100), T17 on CM5 chip; KD,kin
[47] = target: murine CCL20 (mouse) (UniProt O89093); assay: SPR (Biacore T-100), T17 on CM5 chip; KD,kin
[48] = target: murine CCL4 (mouse) (UniProt P14097); assay: SPR (Biacore T-100), T17 on CM5 chip; KD,kin
[49] = target: CCL9 (UniProt P51670); assay: SPR (Biacore T-100), T17 on CM5 chip; KD,kin
[50] = target: murine CCL24 (mouse) (UniProt Q9JKC0); assay: SPR (Biacore T-100), T17 on CM5 chip; KD,kin
[51] = target: human CCL2 (human) (UniProt P13500); assay: SPR (Biacore T-100), T17 on CM5 chip; KD,kin
[52] = target: murine CCL8 (mouse) (UniProt Q9Z121); assay: SPR (Biacore T-100), T17 on CM5 chip; KD,kin
[53] = target: murine CCL12 (mouse) (UniProt Q62401); assay: SPR (Biacore T-100), T17 on CM5 chip; global 1:1 mass transport fit
[54] = target: murine CCL11 (mouse) (UniProt P48298); assay: as above
[55] = target: murine CCL21 (mouse) (UniProt P84444); assay: as above
[56] = target: murine CCL3 (mouse) (UniProt P10855); assay: as above
[57] = target: murine CCL2 (mouse) (UniProt P10148); assay: as above
[58] = target: murine CCL5 (mouse) (UniProt P30882); assay: as above
[59] = target: murine CCL20 (mouse) (UniProt O89093); assay: as above
[60] = target: murine CCL4 (mouse) (UniProt P14097); assay: as above
[61] = target: CCL9 (UniProt P51670); assay: as above
[62] = target: murine CCL24 (mouse) (UniProt Q9JKC0); assay: as above
[63] = target: human CCL2 (human) (UniProt P13500); assay: as above
[64] = target: murine CCL8 (mouse) (UniProt Q9Z121); assay: as above

CXCL12 (hSDF-1b) (Homo sapiens), sequence (P48061 22-93): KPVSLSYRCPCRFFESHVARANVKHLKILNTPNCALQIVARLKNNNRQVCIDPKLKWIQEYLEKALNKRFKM

Substance: T17 chemokine decoy receptor of Rodent herpesvirus Texas (RHVT), C-terminal His tag (6 histidine residues) fusion
- koff [1]: 0.0127 s⁻¹
- kon [1]: 1.23e+06 M⁻¹ s⁻¹
- koff [2]: 0.0173 s⁻¹
- kon [2]: 436000 M⁻¹ s⁻¹
- koff [3]: 0.0174 s⁻¹
- kon [3]: 812000 M⁻¹ s⁻¹
- Kd [4]: 10.4 nM
- Kd [5]: 39.6 nM
- Kd [6]: 21.4 nM
- Kd [7]: 12.3 nM
- Kd [8]: 33.5 nM
- Kd [9]: 22.3 nM
- Kd [10]: 6.76 nM
- Kd [11]: 38.9 nM
- Kd [12]: 4.15 nM
- Kd [13]: 23.4 nM
- Kd [14]: 4.74 nM
- Kd [15]: 39.1 nM
- Kd [16]: 11.9 nM
- Kd [17]: 14.9 nM
- Kd [18]: 3.79 nM
- Kd [19]: 19.2 nM
- Kd [20]: 44.2 nM
- Kd [21]: 24.4 nM
- complex half-life (t1/2) [22]: 90 s
- complex half-life [23]: 225 s
- complex half-life [24]: 26 s
- t1/2 [25]: 54.6 s
- t1/2 [26]: 20.2 s
- t1/2 [27]: 40.1 s
- t1/2 [28]: 39.8 s
- t1/2 [29]: 17.5 s
- t1/2 [30]: 109 s
- t1/2 [31]: 52.5 s
- t1/2 [32]: 90.7 s
- t1/2 [33]: 225 s
- t1/2 [34]: 196 s
- t1/2 [35]: 36.1 s
- t1/2 [36]: 32.7 s
- t1/2 [37]: 23.3 s
- t1/2 [38]: 131 s
- t1/2 [39]: 26.2 s
- t1/2 [40]: 33.9 s
- Kd [41]: 2.54 nM
- Kd [42]: 0.37 nM
- Kd [43]: 15.5 nM
- Kd [44]: 3.25 nM
- Kd [45]: 7.15 nM
- Kd [46]: 1.47 nM
- Kd [47]: 5.62 nM
- Kd [48]: 0.16 nM
- Kd [49]: 18 nM
- Kd [50]: 10.5 nM
- Kd [51]: 1.76 nM
- Kd [52]: 1.23 nM
- koff [53]: 0.0396 s⁻¹
- kon [53]: 1.56e+07 M⁻¹ s⁻¹
- koff [54]: 0.00637 s⁻¹
- kon [54]: 1.73e+07 M⁻¹ s⁻¹
- koff [55]: 0.0132 s⁻¹
- kon [55]: 851000 M⁻¹ s⁻¹
- koff [56]: 0.0076 s⁻¹
- kon [56]: 2.35e+06 M⁻¹ s⁻¹
- koff [57]: 0.00308 s⁻¹
- kon [57]: 431000 M⁻¹ s⁻¹
- koff [58]: 0.0035 s⁻¹
- kon [58]: 2.41e+06 M⁻¹ s⁻¹
- koff [59]: 0.0192 s⁻¹
- kon [59]: 3.42e+06 M⁻¹ s⁻¹
- koff [60]: 0.0212 s⁻¹
- kon [60]: 8.12e+07 M⁻¹ s⁻¹
- koff [61]: 0.0298 s⁻¹
- kon [61]: 1.65e+06 M⁻¹ s⁻¹
- koff [62]: 0.0053 s⁻¹
- kon [62]: 506000 M⁻¹ s⁻¹
- koff [63]: 0.0265 s⁻¹
- kon [63]: 1.51e+07 M⁻¹ s⁻¹
- koff [64]: 0.0205 s⁻¹
- kon [64]: 1.66e+07 M⁻¹ s⁻¹
